Assay results taken from the supplement of paper PMC9170038.

System: MS2 coat protein
Assay: apparent KD of MS2 coat protein; designed switch direction (-1 OFF switch, 1 ON switch): -1; higher = weaker reporter binding
Method in brief: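 The reported apparent KD is a per-design median over clusters, from curve fits of normalised cluster fluorescence. Protein titrations used SNAP-549-labelled MS2 coat protein, doubled from 0.7 or 1.5 nM to 3 µM, in Tris-HCl pH 7.5 buffer with KCl, MgCl2, BSA, DTT, tRNA and Tween-20, with no input, 200 uM small-molecule ligand, or an oligonucleotide input. The RNA switches were transcribed on Illumina chips by stalled E. coli RNA polymerase.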

[1] = Eterna round: R95, input ligand: microRNA oligo, concentration not stated
[2] = Eterna round: R95, input ligand: FMN 200 uM
[3] = Eterna round: R95, input ligand: none
[4] = input ligand: microRNA oligo, concentration not stated

Sequence | apparent KD of MS2 coat protein [1] [nM] | apparent KD of MS2 coat protein [2] [nM] | apparent KD of MS2 coat protein [3] [nM] | apparent KD of MS2 coat protein (input ligand: FMN 200 uM) [nM] | apparent KD of MS2 coat protein (input ligand: none) [nM] | apparent KD of MS2 coat protein [4] [nM]
GCGUGACAUGAGGAUCACCCAUGUGAGGAUAUCUGGACACUCUUUAUUUUAGAUGUCCAGAGAAGGCACAUGCU [Ex1-3: 5Z] (puzzle: Exclusion 1) | 220 | – | – | – | – | –
AAGAGUGCAGGAUAUACUUGGUAGGGCGGGUGGAUGGUUUGACAUGAGGAUCACCCAUGUAGAAGGGCAGAGAG [JR_Exclu2_Sub054] (puzzle: Exclusion 2) | 31.4 | – | – | – | – | –
GAAAAGGUAGGAUAUACGAAAAGAAAGGGUAGAGAAGAAACACAUGAGGAUCACCCAUGUAGAAGGACCAAAAG [salish99_ex2_r3_098] (puzzle: Exclusion 2) | 26.4 | 96.4 | 28.4 | – | – | –
UAAUUAAAUGUAAGGAUAUGGCAAUGCGGUGGCAGUUAGAAGGUACAUGAGGAUCACCCAUGUGUGUAUCGUGA [Eternabot (L1) Solution 93] (Eterna round: R97, puzzle: Brourd's mod of Exclusion 4) | – | – | – | 233 | 248 | –
UGUUGGCGAGGAUAUACAUGAGGAUCACCCAUGUGAGAGAAAAAAGUGAGGAAGAAAAGUAGAAGGCGCUGACG [salish99_ex3_r3_043] (puzzle: Exclusion 3) | 40 | 209 | 45.4 | – | – | –
UUUUACAUGCUGAGAUCCUACAUGAGGAUCACCCAUGUGGUCCGGAAAAUUUUGUCACCGGAUUUUGCUCGUCUUGU [salish99_S_TOV1_R5_102] (Eterna round: R97, puzzle: Sensor, turn-off variant 1) | – | – | – | 69.5 | 112 | –
CCAGCUCGUGUUAGGAUAUCCAAGCUGCGGCUGGUGGAGAAGGGACAUGAGGAUCACCCAUGUAAUAAAGAAAA [On] (puzzle: Brourd's mod of Exclusion 4) | 21.4 | – | – | – | – | –
UUUAAUUUUUUUUUUUUACAAGCUUUUUGCUCGUCUUAUACAUGAGGAUCACCCAUGUAAAUGGGAAGUAAAUUAUC [JMF 50] (puzzle: Sensor v3, turn-off variant 2) | 207 | 59.5 | 93.1 | – | – | –
AAAAGGCGUGUGAGGAUAUCCGGAGACGUGAAAAGGGAGAAGGCACAUGAGGAUCACCCAUGUGGAGUGUAAAG [Uscece] (puzzle: Brourd's mod of Exclusion 4) | 18.6 | 38.2 | 27.5 | – | – | –
GGAUCUUGGGUCAGGAUAUGCUGAUAGUUAUGUCAGCAGAAGGGACAUGAGGAUCACCCAUGUGCUUGGUUUUG [Magic-17] (puzzle: Brourd's mod of Exclusion 4) | 13.1 | – | – | – | – | –
GUGUGCAGAGGAUAUACAGAGGAAAAGAAGAAAGAAGAGGGACAUGAGGAUCACCCAUGUAGAAGGCUGAGUGU [Excluse me!! 24 - Jieux - Exclusion 2] (puzzle: Exclusion 2) | 30.4 | – | – | – | – | –
UUGAUGUAAGGAUAUCGUGCAAGUUUCAAAAGAGGCUUGUGCGAGAAGGUACAUGAGGAUCACCCAUGUAGGUU [Omei Ex4 B8] (Eterna round: R97, puzzle: Exclusion 4) | – | – | – | 113 | 31.7 | –
ACAUGAGGAUCACCCAUGUACACGUAAUGGCUCAUGUAGAGUCAGGAUAUGCGUGGCGAACUCGCGCAGAAGGGACAAGACUGG [Deportation 21 - Jieux - Exclusion NG 3] (Eterna round: R96, puzzle: Exclusion NG 3) | – | – | – | 27.1 | 23 | 18.6
UAUUAAGCAAGCAGAUCCCACAUGAGGAUCACCCAUGUGCUCGUCUUAUAAGGUACUGUGACGAAAGUCACGGUACC [Sensor 3, v1 - 91 v12] (Eterna round: R97, puzzle: Sensor, turn-off variant 1) | – | – | – | 126 | 156 | –
UCGUCCUGUGUAGGAUAUCGCGGGCUUUGCCCGCGAGAAGGACAUGAGGAUCACCCAUGUGGGCCGCGCCGCGGGCGCGGCCCA [new design] (Eterna round: R96, puzzle: Exclusion NG 1) | – | – | – | 1360 | 230 | 4700
AAGUUCAGAGGAUAUGCCCAGCUCGACAUGAGGAUCACCCAUGUAUCCACAGAACGUACGGCAGAAGGCUGCAAUA [Eternabot (Original) Solution 9] (Eterna round: R97, puzzle: Exclusion 5) | – | – | – | 69.4 | 86 | –
AUGAGGUUAGGAUAUACAUGAGGAUCACCCAUGUUGGAGAAGGAAAUGUAAGUAGCGAGUAGAAGGAACGGAGC [JR_Exclu3_Sub059] (puzzle: Exclusion 3) | 44.1 | – | – | – | – | –

Sequence | apparent KD of MS2 coat protein [1] [nM] | apparent KD of MS2 coat protein [2] [nM] | apparent KD of MS2 coat protein [3] [nM] | apparent KD of MS2 coat protein (input ligand: FMN 200 uM) [nM] | apparent KD of MS2 coat protein (input ligand: none) [nM] | apparent KD of MS2 coat protein [4] [nM]
UUUUAGAGAGGAUAUAUUAUGUGAAACAUGAGGAUCACCCAUGUAAUAUGAUGGAUGUAAAUAGAAGGCUCAUUUA [JL-ex5-3.06] (puzzle: Exclusion 5) | 48.3 | 34.6 | 58 | – | – | –
CAUUGUUAUCGAGGAUAUCCUAUUGAGAUUCUAGGAGAAGGCGGACUAAACAUGAGGAUCACCCAUGUGGGACGGAUGCUAGGG [Ex NG1 #30] (Eterna round: R96, puzzle: Exclusion NG 1) | – | – | – | 31.4 | 25.2 | 19.8
UUAUUAAGUGUGAGGAUAUGCUGGUCCUUGGAUCAGCAGAAGGCACAUGAGGAUCACCCAUGUACAAUAUAUUA [Mat - Exclusion 4 - JL Mod - D30] (Eterna round: R96, puzzle: Brourd's mod of Exclusion 4) | – | – | – | 235 | 42.1 | 30.5
UUGAUGUGAGGAUAUGUGAUCUGCCUUCUAUAUAGAUGAUUACAGAAGGCACAUGAGGAUCACCCAUGUAGAUC [Ex4 - 3 - 24] (puzzle: Exclusion 4) | 49.2 | – | – | – | – | –
GUAAUGCUAGGAUAUCGACAAAUUUACAUGAGGAUCACCCAUGUGAACCCUGUGUGGUAACGAGAAGGAGUCAGCU [Eternabot (L2) Solution 54] (Eterna round: R97, puzzle: Exclusion 5) | – | – | – | 39.1 | 53.5 | –
CUUUUGUGAGGAUAUCAGUAUUAAAAAAAUAAAAUUACUACUGAGAAGGCACAUGAGGAUCACCCAUGUUCCUC [salish99_ex4_r3_032] (puzzle: Exclusion 4) | 34.4 | – | – | – | – | –
ACAUGAGGAUCACCCAUGUAAUCAUAAUGGCUGAUGUAGAGUCAGGAUAUGUGUGGCUAACAAUCGCAGAAGGGACAAGACUGG [Deportation 32 - Jieux - Exclusion NG 3] (Eterna round: R96, puzzle: Exclusion NG 3) | – | – | – | 31.4 | 29.5 | 21.6
UAUUUGCAAGCGAGAUCCCACAUGAGGAUCACCCAUGUGCUCGUCUUAUAAGGUACUGUGACGAGAGUCACGGUACC [Mat - Sensor, turn-off var - Eli Mod - D90] (Eterna round: R97, puzzle: Sensor, turn-off variant 1) | – | – | – | 15 | 15.6 | –
UCGCUCCGUGUAGGAUAUCGCCGUACGAUGCGGCGAGAAGGACAUGAGGAUCACCCAUGUAUGUUAUUAUCACGCGUGGCGCAA [Design 62] (Eterna round: R96, puzzle: Exclusion NG 1) | – | – | – | 21.3 | 16.5 | 11.3
GUACUGAAGCUUUGCUUUAGUCGUACAUGAGGAUCACCCAUGUAGGAUAUGGUAAGCAUAGCUUACUAGAAGGAUAGAGUGAUC [Mat - Exclusion NG 3 - Mod of JL - D65] (Eterna round: R96, puzzle: Exclusion NG 3) | – | – | – | 169 | 97.8 | 56.6
GGUAUACAUGAGGAUCACCCAUGUCAGGAUAUGGUAUCCUGUGCCGAAAGGCACAGGUCCAGAAGGGACGAUAG [AK-MS2ROC-r4-exclusion1-5.2] (Eterna round: R97, puzzle: Exclusion 1) | – | – | – | 109 | 91.7 | –
GACCUACAUGAGGAUCACCCAUGUCAGGAUAUGUGGCGGAGUACGAACAGUCCAAGCGACAGAAGGGACAACAG [Eternabot (Original) Solution 24] (Eterna round: R97, puzzle: Exclusion 1) | – | – | – | 27.8 | 25.3 | –
AGUACUAACACGUAAGUGUUAGUACAAUAAGCUUGUGUUACAUGAGGAUCACCCAUGUCCUCAUAAGCUCGUCUUAU [Mat - Sensor v3 - Turn-off var 2 - D60] (puzzle: Sensor v3, turn-off variant 2) | 77.6 | 134 | 150 | – | – | –
AACAACGUAGGAUAUGCAGCUACGGACUUGAGGAUCACCCAAGUGAUCAUAGCCCGUAUAGCAGAAGGGCGGAUCA [Arontebi] (Eterna round: R97, puzzle: Exclusion 5) | – | – | – | 321 | 224 | –
CCCUCACAUGAGGAUCACCCAUGUUAGGAUAUCUACCAGGAGCCUAAAAUGGCCCAACGGAGAAGGAACGUGCA [Arbire] (Eterna round: R96, puzzle: Exclusion 1) | – | – | – | – | – | 14.7
UUUUAGUCAGGAUAUACAUGAGGAUCACCCAUGUAAAAUUUUAAUUUAAUUUUAAGGUGUAGAAGGGACAUUUA [Ex3 #6] (Eterna round: R97, puzzle: Exclusion 3) | – | – | – | 28.4 | 33.6 | –
AUUAUAAAUGUAGGAUAUCUGCACGAUUAGUGCAGAGAAGGACAUGAGGAUCACCCAUGUAGAUCAAUAAUAAUUAAUUUAAUU [ENG1/5-B1] (Eterna round: R96, puzzle: Exclusion NG 1) | – | – | – | 184 | 39.8 | 34
